Literature values as cited in paper PMC4472561 (The FEBS journal, 2015).

Assays:
[1] = system: CD8^+ cytotoxic effector memory T cells; conditions: in words; ref [25]
neural progenitor cells = conditions: in words; ref [24]
Kv1.1 = Kv1.1 (UniProt Q09470)
UniProt Q09470, sequence (Q09470 whole entry): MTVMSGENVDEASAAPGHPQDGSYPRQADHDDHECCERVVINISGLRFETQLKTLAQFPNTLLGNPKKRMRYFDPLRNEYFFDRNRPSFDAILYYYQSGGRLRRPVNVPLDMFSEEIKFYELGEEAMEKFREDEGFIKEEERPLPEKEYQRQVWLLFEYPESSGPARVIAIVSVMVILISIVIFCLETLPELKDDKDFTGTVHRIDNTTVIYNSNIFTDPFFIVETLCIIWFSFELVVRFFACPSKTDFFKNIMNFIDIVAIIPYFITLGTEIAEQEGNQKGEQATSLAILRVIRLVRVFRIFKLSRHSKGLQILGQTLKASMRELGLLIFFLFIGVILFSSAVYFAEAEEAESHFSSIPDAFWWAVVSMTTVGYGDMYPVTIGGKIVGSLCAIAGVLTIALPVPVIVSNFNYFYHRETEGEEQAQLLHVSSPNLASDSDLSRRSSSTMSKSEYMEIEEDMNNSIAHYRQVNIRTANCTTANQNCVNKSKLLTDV

Substance | proliferation of CD8+ cytotoxic effector memory T cells and secretion of granzyme B [1] | differentiation of neural progenitor cells into neurons (neural progenitor cells) | Kd (Kv1.1)
ChTx | blocked the proliferation of CD8^+ cytotoxic effector memory T cells and their secretion of granzyme B | – | –
MgTx (TIINVKCTSPKQCLPPCKAQFGQSAGAKCMNGKCKCYPH; UniProt P40755 1-39, looked up) | blocked the proliferation of CD8^+ cytotoxic effector memory T cells and their secretion of granzyme B | increased the differentiation of neural progenitor cells into neurons and enhanced neuron-regeneration | –
ShK (from UniProt P29187) | – | – | 0.016 nM
